For data set [1], the target named is HexA-6His (Photorhabdus luminescens TT01). The experiment in a line: SEC + other: dynamic light scattering; gel filtration of purified HexA-6His on a Superdex 200 column; DLS of the HexA peak fraction from gel filtration. A general note: SEC sorts molecules by how far they enter the pores of the column.
In data set [2] the test system is HexA-6His (Photorhabdus luminescens TT01). The experiment in a line: SPR. As to conditions: 5' biotin on forward primer (PpcfA-Btn_fwd; position implied); SPR (Biacore T200, streptavidin chip, ~300 RU DNA): HBS-EP+ 10 mM HEPES pH 7.4, 150 mM NaCl, 3 mM EDTA, 0.05% Surfactant P20, 25 C …. (SPR reads the build-up and loss of mass on a sensor chip optically.)

For orientation: stoichiometry N means the number of molecules, sites or subunits per partner or assembly. Usually pKd stands for −log10 of the Kd, conventionally taken in molar units.

pKd: −log10 of the molar value.

As for HexA-6His (natural protein), the stoichiometry N in data set [1] is 4.

PpcfA promoter fragment (400 bp) had a pKd in data set [2] of 5.89.
